# Assay results reported in article PMC3996484, “Apoptosis Therapy in Cancer: The First Single-molecule Co-activating p53 and the Translocator Protein in Glioblastoma” (Scientific Reports, 2014).
# B1: recombinant human His-tagged N-terminal region of MDM2 (residues 1-118) (domain or fragment, UniProt Q00987 1-118, looked up)
# chain: MCNTNMSVPTDGAVTTSQIPASEQETLVRPKPLLLKLLKSVGAQKDTYTMKEVLFYLGQYIMTKRLYDEKQQHIVYCSNDLLGDLFGVPSFSVKEHRKIYTMIYRNLVVVNQQESSDS
# notes: MDM2 (murine double minute 2), human, N-terminal region, residues 1-118; Cloned in a derivative of the vector pET-46Ek/LIC (Novagen); also called murine double minute 2
# Target: T1, recombinant human His-tagged p53 protein (residues 1-312) (human, UniProt P04637 1-312)
# T1 construct: p53 tumor suppressor, human, residues 1-312; source: final buffer with 0.2 mM ZnCl2
# T1 sequence (P04637 1-312): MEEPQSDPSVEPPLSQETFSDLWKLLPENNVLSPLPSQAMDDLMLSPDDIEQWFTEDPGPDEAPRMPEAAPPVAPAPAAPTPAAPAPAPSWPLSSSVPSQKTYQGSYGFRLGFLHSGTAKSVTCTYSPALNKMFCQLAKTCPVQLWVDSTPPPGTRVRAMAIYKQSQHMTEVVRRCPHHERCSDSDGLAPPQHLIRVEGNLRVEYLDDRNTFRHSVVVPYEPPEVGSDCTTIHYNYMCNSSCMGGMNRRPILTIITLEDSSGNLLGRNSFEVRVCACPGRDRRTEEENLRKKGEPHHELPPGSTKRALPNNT
# Assay: NMR titration; AIDA, 1D proton NMR of tryptophan side chain NH-epsilon signals of p53 alone and of the MDM2/p53 complex; 0.1 mM proteins, 20 mM TrisHCl, 150 mM KCl, pH 7.4, 5 mM beta-mercaptoethanol, 0.02% NaN3, 25°C, 700 MHz
# Settings: both partners purified
binder,measurement,value
B1,binding result,binds
